“And” between values parts separate entries of the source, which are not always exact repeats. Equal entries are not always repeated.
Experiments:
[1] = target: 40007 (clade CRF01 A-E) gp140 trimer, Strep-tag approach (HIV-1 strain 40007); assay: not stated; trimers purified by the Strep-tag approach; manuscript in preparation
[2] = target: JRFL foldon-gp140 (uncleaved foldon trimer) (HIV-1 strain JRFL | bacteriophage T4); assay: SEC + native gel or EMSA
[3] = target: SF162 (clade B) gp140 trimer, Strep-tag approach (HIV-1 strain SF162); assay: not stated; trimers purified by the Strep-tag approach; manuscript in preparation
[4] = target: Strep-tagged BG505 CR gp140 (uncleaved) (HIV-1 strain BG505); assay: native gel or EMSA
[5] = target: Strep-tagged JRFL CP664-gp140 (cleaved trimer) (HIV-1 strain JRFL); assay: SEC + native gel or EMSA; Strep-Tactin-purified gp140 on Superdex 200 in 25 mM Tris-HCl pH 8, 150 mM NaCl; fractions on blue native PAGE; 293F- or GnTI−-produced
[6] = target: Strep-tagged JRFL CP664-gp140 (cleaved trimer) (HIV-1 strain JRFL); assay: negative stain EM
[7] = target: Strep-tagged JRFL CP664-gp140 (cleaved trimer) (HIV-1 strain JRFL); assay: native gel or EMSA
[8] = target: Strep-tagged JRFL CR664-gp140 (uncleaved) (HIV-1 strain JRFL); assay: SEC + native gel or EMSA; Strep-Tactin-purified gp140 on Superdex 200 in 25 mM Tris-HCl pH 8, 150 mM NaCl; fractions on blue native PAGE; 293F- or GnTI−-produced
[9] = target: Strep-tagged JRFL CR664-gp140 (uncleaved) (HIV-1 strain JRFL); assay: negative stain EM
[10] = target: Strep-tagged JRFL CR664-gp140 (uncleaved) (HIV-1 strain JRFL); assay: native gel or EMSA

“40007 (clade CRF01 A-E) gp140 trimer, Strep-tag approach (natural protein)” gave a stoichiometry N [1] of 3.

Substance “JRFL foldon-gp140 (uncleaved foldon trimer)” has a stoichiometry N [2] of 3.

For “SF162 (clade B) gp140 trimer, Strep-tag approach (natural protein)”, the stoichiometry N [3] was 3.

In the case of “Strep-tagged BG505 CR gp140 (uncleaved) (natural protein)”, the stoichiometry N [4] is reported as 3.

“Strep-tagged JRFL CP664-gp140 (cleaved trimer) (complex)” was tested, and the fold, fraction of gp140 recovered as trimers against uncleaved gp140 [5] was 3 fold and 5 fold, the stoichiometry N [5] was 3 and the stoichiometry N [6] was 3. For the same substance, the stoichiometry N [7] was 3.

For “Strep-tagged JRFL CR664-gp140 (uncleaved) (natural protein)”, the stoichiometry N [8] was 3, the stoichiometry N [9] was 3 and the stoichiometry N [10] was 2 and 3.
